Experimental data taken from US20060052301A1, “Splice variants of peptide YY, neuropeptide Y, pancreatic peptide Y and Amylin, and uses thereof” (priority 2004, published 2006).

B1: Amylin: 37-amino acid monomeric polypeptide hormone co-secreted with insulin from pancreatic beta cells (peptide, listed as Homo sapiens)
chain: MGILKLQVFLIVLSVALNHLKATPIESHQVEKRKCNTATCATQRLANFLVHSSNNFGAILSSTNVGSNTYGKRNAVEVLKREPLNYLPL

Key:
ob/ob female mice = experiment: Treatment effects on body weight and food intake, continuous infusion by Alzet mini-osmotic pump; assay type: in vivo; settings: 300 or 1000 μg/Kg/day
Procedure: Assessment of potential treatment effect on body weight and food intake by PYY variants of the present invention is performed under blinded conditions. The test system includes 40 ob/ob female mice, each about 50 g & 12 weeks of age at study initiation, in 5 groups (n=8), housed 4 per cage.
The first week, representing the first stage of the experiment, is the first acclimatization stage, when the 12 hours light and dark cycles regime is applied at the same hours of the day (light cycle is between 6:30-18:30). The viability check and clinical signs observations are checked daily.
The second week of the experiment, is the second acclimatization stage, when the same 12 hours/12 hours light and dark cycles regime is applied. At this stage, every day at the same time each day, the following parameters are assessed: daily viability check and clinical signs observations, including for example, changes in skin, fur, eyes, mucous membranes, secretions, activity and response to handling, as well as any unusual behavior, sleep and coma; body weight measurement 3 times/week; and food consumption measurement 1 time/daily for 5 days a week.
The third stage, days 15-43 (weeks 3-6 of the experiment), is the test compound administration stage.
On day 15, an Alzet mini-osmotic pump (model 2004), is surgically inserted into each test animal, under general anesthesia. […]

[1] = In-vitro stability study in acetate buffer (Alzet pump model, HPLC); assay type: physicochemical; settings: 20 mM acetate buffer pH 4.0, 37° C., 28 days
Procedure: (Alzet in-vitro protocol, DURECT Corporation, Calif., USA) following the analysis of the solutions by HPLC.
In all the cases 2 or 3 different experiments were carried out.

[2] = in rats, in rabbits, and in humans with Paget's disease; cited from earlier work

Molecule | body weight gain (ob/ob female mice; 28 days, versus control group) | food intake (ob/ob female mice; especially during the first days of the study) | Purity (%) (average ± stdev) ([1]; high dose (PYY[3-36] 10.6 mg/ml; PYY variant [3-42] 12.8 mg/ml)) | Purity (%) (average ± stdev) ([1]; low dose (PYY[3-36] 3.3 mg/ml; PYY variant [3-42] 3.9 mg/ml)) | lowering of plasma calcium [2]
PYY variant: PYY splice variant skipping exon 3, residues 3-42, SEQ ID NO:75; lacks last Tyr, adds 7 C-terminal residues SEGPDLW | gain significantly less weight than the control group | significant effect of reduction in the food intake | 72.3 ± 0.2 | 69.2 ± 0.6 | –
B1 | – | – | – | – | up to 20%
